Assay results from article PMC3855764, “Oct4/Sox2 Binding Sites Contribute to Maintaining Hypomethylation of the Maternal Igf2/H19 Imprinting Control Region”.

Legend:
Settings in all cases: protein: recombinant
Sox2 (recombinant) [1] = target: T1, Sox2 (recombinant) (UniProt P48432 1-319); experiment: EMSA; 10 mM Tris pH 8.0, 2 mM MgCl (so in the source), 100 mM KCl, 1.25 mM DTT, 5% glycerol, 0.0625% BSA, 19 ug/ml dGdC, 25 fmol probe in 16 ul, 10 min room temperature; 4% PAGE 0.25X TBE
Sox2 (recombinant) [2] = target: T1, Sox2 (recombinant); experiment: EMSA; Sox2 alone; 10 mM Tris pH 8.0, 2 mM MgCl (so in the source), 100 mM KCl, 1.25 mM DTT, 5% glycerol, 0.0625% BSA, 19 ug/ml dGdC, 25 fmol probe in 16 ul, 10 min room temperature; 4% PAGE 0.25X TBE
Oct4 (recombinant) [3] = target: T2, Oct4 (recombinant) (UniProt P20263 1-352); experiment: EMSA; bound both elements equally well; 10 mM Tris pH 8.0, 2 mM MgCl (so in the source), 100 mM KCl, 1.25 mM DTT, 5% glycerol, 0.0625% BSA, 19 ug/ml dGdC, 25 fmol probe in 16 ul, 10 min room temperature; 4% PAGE 0.25X TBE
T2 sequence (P20263 whole entry): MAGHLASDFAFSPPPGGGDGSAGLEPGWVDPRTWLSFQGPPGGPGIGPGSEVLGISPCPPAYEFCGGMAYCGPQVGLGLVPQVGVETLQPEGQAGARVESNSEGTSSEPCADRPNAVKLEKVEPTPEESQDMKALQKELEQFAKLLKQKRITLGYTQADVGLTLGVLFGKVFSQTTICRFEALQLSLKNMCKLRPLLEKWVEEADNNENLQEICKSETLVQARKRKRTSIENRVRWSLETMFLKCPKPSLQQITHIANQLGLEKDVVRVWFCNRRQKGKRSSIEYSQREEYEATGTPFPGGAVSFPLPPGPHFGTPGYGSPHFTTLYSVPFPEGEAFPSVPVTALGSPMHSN

Sox2 (recombinant) [4] = target: T1, Sox2 (recombinant); experiment: EMSA; almost equal to WT; likely via octamer; 10 mM Tris pH 8.0, 2 mM MgCl (so in the source), 100 mM KCl, 1.25 mM DTT, 5% glycerol, 0.0625% BSA, 19 ug/ml dGdC, 25 fmol probe in 16 ul, 10 min room temperature; 4% PAGE 0.25X TBE
Oct4 (recombinant) [5] = target: T2, Oct4 (recombinant); experiment: EMSA; Oct4 binding not altered by Sox mutation; 10 mM Tris pH 8.0, 2 mM MgCl (so in the source), 100 mM KCl, 1.25 mM DTT, 5% glycerol, 0.0625% BSA, 19 ug/ml dGdC, 25 fmol probe in 16 ul, 10 min room temperature; 4% PAGE 0.25X TBE

T1 sequence (P48432 whole entry): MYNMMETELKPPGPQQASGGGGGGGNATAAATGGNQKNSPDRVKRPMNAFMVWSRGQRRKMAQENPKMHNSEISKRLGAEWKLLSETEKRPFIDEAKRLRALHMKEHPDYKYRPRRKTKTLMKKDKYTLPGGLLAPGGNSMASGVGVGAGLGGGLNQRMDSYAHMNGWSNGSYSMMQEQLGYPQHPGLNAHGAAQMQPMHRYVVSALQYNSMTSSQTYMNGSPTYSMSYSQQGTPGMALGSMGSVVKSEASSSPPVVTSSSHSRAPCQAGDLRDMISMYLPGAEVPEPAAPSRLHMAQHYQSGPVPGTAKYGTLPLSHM

B1: ICR SoxC (dsDNA)
DNA 1: GCTCAGGGCTGCAAACAATTCTGAAACTGCATTCTC
DNA 2: GAGAATGCAGTTTCAGAATTGTTTGCAGCCCTGAGC
Sox2 (recombinant) [1]
  binding result: binds

B2: ICR Sox-OctA (dsDNA)
DNA 1: CTGGTGATTTGCGCTTTCGTATTCTAATTGGGGAC
DNA 2: GTCCCCAATTAGAATACGAAAGCGCAAATCACCAG
Sox2 (recombinant) [2]
  binding result: binds
Oct4 (recombinant) [3]
  binding result: binds

B3: ICR Sox-OctB (dsDNA)
DNA 1: TTGGGGCGTTCAGATGCTAATGATCTCCGGCT
DNA 2: AGCCGGAGATCATTAGCATCTGAACGCCCCAA
Oct4 (recombinant) [3]
  binding result: binds

B4: mSA (Sox mutant Sox-OctA) (dsDNA)
DNA 1: CTAAGCGCTACGTCCTAGGTATTCTAATTGGGGAC
DNA 2: GTCCCCAATTAGAATACCTAGGACGTAGCGCTTAG
Sox2 (recombinant) [4]
  binding result: binds
Oct4 (recombinant) [5]
  binding result: binds

B5: mSB (Sox mutant Sox-OctB) (dsDNA)
DNA 1: TTGGGGAACGAAGATGCTAATGATCTCCGGCT
DNA 2: AGCCGGAGATCATTAGCATCTTCGTTCCCCAA
Oct4 (recombinant) [5]
  binding result: binds
